In patent US20130115676:

Molecular target: T1, HpaI (Haemophilus parainfluenzae) (UniProt P29537)
T1 sequence: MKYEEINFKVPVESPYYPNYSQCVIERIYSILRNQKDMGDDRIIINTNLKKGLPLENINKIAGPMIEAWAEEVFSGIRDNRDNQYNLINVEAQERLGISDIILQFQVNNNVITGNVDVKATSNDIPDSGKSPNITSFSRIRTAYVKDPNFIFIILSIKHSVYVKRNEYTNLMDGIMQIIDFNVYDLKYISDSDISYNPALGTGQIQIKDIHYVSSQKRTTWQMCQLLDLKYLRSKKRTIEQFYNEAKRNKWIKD
Test: cleavage_in_vitro
Details: NEB4, 10 mM Mg acetate, 37 C

lambda DNA
activity (fidelity index): 16
